Data taken from article doi:10.1101/2025.09.13.676036.

Experiments:
[1] = biological target: Thermocrinis minervae double ferritin-like protein (Thermocrinis minervae); experiment: SEC-MALS
[2] = biological target: Thermocrinis minervae double ferritin-like protein (Thermocrinis minervae); experiment: SEC-SAXS
[3] = biological target: Caldanaerovirga acetigignens double ferritin-like protein (Caldanaerovirga acetigignens); experiment: SEC-MALS

| Substance | stoichiometry N [1] | stoichiometry N [2] | stoichiometry N [3] |
| --- | --- | --- | --- |
| Thermocrinis minervae double ferritin-like protein (enzyme) | 2 | 2 | – |
| Caldanaerovirga acetigignens double ferritin-like protein (enzyme) | – | – | 2 |
